Experimental data from patent publication US7179468 (CORNELL RESEARCH FOUNDATION, dated 2007).

Experiments:
[1] = biological target: HIV-1 envelope glycoprotein (gp120/gp41 complex) of isolate NL4-3 (HIV-1); experiment: cell-based or functional assay
[2] = biological target: HIV-1 envelope glycoprotein (gp120/gp41 complex) of isolate 2076c1.3 (HIV-1); experiment: cell-based or functional assay
[3] = biological target: HIV-1 envelope glycoprotein (gp120/gp41 complex) of isolate JRFL (HIV-1); experiment: cell-based or functional assay
[4] = biological target: HIV-1 envelope glycoprotein (gp120/gp41 complex) of isolate 92US657 (HIV-1); experiment: cell-based or functional assay
[5] = biological target: HIV-1 envelope glycoprotein (gp120/gp41 complex) of isolate HC4 (HIV-1); experiment: cell-based or functional assay
[6] = biological target: HIV-1 envelope glycoprotein (gp120/gp41 complex) of isolate SF162 (HIV-1) (UniProt P19549); experiment: cell-based or functional assay
[7] = biological target: HIV-1 envelope glycoprotein (gp120/gp41 complex) of isolate DH123 (HIV-1); experiment: cell-based or functional assay
[8] = biological target: Q652L peptide (C52 peptide with leucine for glutamine at position 652) (HIV-1 (HXB2 strain)); experiment: sedimentation equilibrium, 4 C; self-association
[9] = biological target: the molecule itself; experiment: sedimentation equilibrium; self-association

| Molecule | EC50 IgG (ug/ml), neutralization of HIV-1 (p24 production in PHA-activated PBMC) [1] [µg/mL] | EC50 IgG (ug/ml), neutralization of HIV-1 (p24 production in PHA-activated PBMC) [2] [µg/mL] | EC50 IgG (ug/ml), neutralization of HIV-1 (p24 production in PHA-activated PBMC) [3] [µg/mL] | EC50 IgG (ug/ml), neutralization of HIV-1 (p24 production in PHA-activated PBMC) [4] [µg/mL] | EC50 IgG (ug/ml), neutralization of HIV-1 (p24 production in PHA-activated PBMC) [5] [µg/mL] | EC50 IgG (ug/ml), neutralization of HIV-1 (p24 production in PHA-activated PBMC) [6] [µg/mL] | EC50 IgG (ug/ml), neutralization of HIV-1 (p24 production in PHA-activated PBMC) [7] [µg/mL] | molecular weight from sedimentation equilibrium (expected for a trimer 19,419) [8] | binding result [9] |
| --- | --- | --- | --- | --- | --- | --- | --- | --- | --- |
| human antibody 2F5 isolated from an HIV-1-infected donor | 15.2 | 38.1 | 4.37 | 57.8 | 34.2 | – | – | – | – |
| CD4-IgG2 (Fc fusion) | 0.21 | > 10 | 0.51 | > 10 | > 10 | < 0.062 | 5.18 | – | – |
| Q652L peptide (C52 peptide with leucine for glutamine at position 652) | – | – | – | – | – | – | – | 17700 | – |
| N656L peptide (C52 peptide with leucine for asparagine at position 656) (No unique oligomeric state; The apparent molecular weight depends on the concentration) NHTTWLEWDREINNYTSLIHSLIEESQNQQEKLEQELLELDKWASLWNWFNI | – | – | – | – | – | – | – | – | binds |
